Measurements taken from patent US20250368754A1 (KANAPH THERAPEUTICS, published 2025).

Legend:
human LTβR on A375 cells [1] = target: T1, human LTβR on A375 cells (human, UniProt P36941 31-435); assay: cell-based or functional assay
human LTβR on A375 cells [2] = target: T1, human LTβR on A375 cells; assay: flow cytometry on A375 cells, serial dilution from 500 nM, anti-human IgG detection
Method: (§1) Specifically, the A375 cell line was prepared by suspending in a FACS buffer solution at 1×10⁵ cells/100 μL, and treated with 100 μL each of T3.01, T3.07, T3.04, and T3.18 prepared by suspending at 500 nM and diluting by serial dilution. The cells were washed twice with a FACS buffer solution. The cells were stained with an anti-human IgG antibody (Biolegend). The expression ratio of the stained cells was measured using BD LSR and analyzed using FlowJo software.

[3] = target: T2, recombinant human herpes virus entry mediator (HVEM) (human, UniProt Q92956 39-202); assay: SPR, human HVEM immobilised on CM5, fusion protein as analyte, 1:1 binding model
T2 construct: neither construct is described; also called human HVEM; recombinant human HVEM protein (R&D systems)
T2 sequence (looked up): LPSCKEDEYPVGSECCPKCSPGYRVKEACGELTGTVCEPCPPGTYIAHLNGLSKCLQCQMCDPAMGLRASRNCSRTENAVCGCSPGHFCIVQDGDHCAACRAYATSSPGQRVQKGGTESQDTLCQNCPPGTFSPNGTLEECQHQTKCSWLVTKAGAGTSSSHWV
Method: (§2) Specifically, the surface of the CM5 chip was activated with a 1:1 mixture of […], and 5 to 6 μg/mL of human HVEM was immobilized for 60 seconds at a rate of 10 μL/min. The remaining active ester groups were blocked with 1 M ethanolamine. T3.01, T3.07, T3.09, T3.14, and T3.18 were each diluted to 100 nM in 1×HBS-EP+buffer solution and diluted by serial dilution. The diluted fusion proteins were reacted at a rate of 30 μL/min. The association and dissociation times were 180 seconds and 400 seconds, respectively. After the dissociation step, stabilization was performed for 60 seconds, and then the regeneration step was performed for 30 seconds with a 10 mM glycine pH 1.5 solution at a rate of 30 μL/min.

recombinant human FAP = target: T3, recombinant human FAP (human, UniProt Q12884 26-760); assay: SPR, fusion protein captured by anti-human IgG (Fc) on CM5, recombinant human FAP as analyte, 1:1 binding model
T3 construct: also called rhFAP
T3 sequence (looked up): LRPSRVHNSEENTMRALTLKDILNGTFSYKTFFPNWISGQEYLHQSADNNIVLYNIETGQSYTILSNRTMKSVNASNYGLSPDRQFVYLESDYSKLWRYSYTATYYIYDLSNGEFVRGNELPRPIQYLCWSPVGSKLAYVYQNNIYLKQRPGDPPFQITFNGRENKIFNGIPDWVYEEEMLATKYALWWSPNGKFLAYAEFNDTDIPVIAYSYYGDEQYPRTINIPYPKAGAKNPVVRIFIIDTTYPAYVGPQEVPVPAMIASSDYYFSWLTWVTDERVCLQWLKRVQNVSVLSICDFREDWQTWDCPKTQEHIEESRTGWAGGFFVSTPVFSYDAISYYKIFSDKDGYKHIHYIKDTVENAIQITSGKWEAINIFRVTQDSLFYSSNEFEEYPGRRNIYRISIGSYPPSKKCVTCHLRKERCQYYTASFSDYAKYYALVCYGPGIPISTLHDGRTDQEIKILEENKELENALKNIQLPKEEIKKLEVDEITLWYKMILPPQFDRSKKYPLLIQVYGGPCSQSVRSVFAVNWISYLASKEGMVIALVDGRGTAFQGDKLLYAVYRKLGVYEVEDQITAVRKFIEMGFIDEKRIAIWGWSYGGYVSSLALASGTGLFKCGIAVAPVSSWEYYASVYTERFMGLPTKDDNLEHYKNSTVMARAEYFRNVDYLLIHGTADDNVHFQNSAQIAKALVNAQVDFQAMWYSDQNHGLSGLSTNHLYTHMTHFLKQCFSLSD
Method: Specifically, the surface of the CM5 chip was activated with a 1:1 mixture of […] NHS (N-hydroxysuccinimide) and 200 nM EDC (1-ethyl-3-(3-dimethylaminopropyl)carbodiimide), and 20 μg/mL of anti-human IgG (Fc) antibody was immobilized for 400 seconds at a rate of 10 μL/min. The remaining active ester groups were blocked with 1 M ethanolamine. T3.01, T3.07, and T3.14 were diluted to 2 μg/mL, 1 μg/mL, and 2 μg/mL, respectively, and reacted on the CM5 chip immobilized with the anti-human IgG (Fc) antibody. The recombinant human FAP was diluted to 50 nM or 100 nM in 1×HBS-EP+buffer solution and diluted by serial dilution. The diluted recombinant human FAP was reacted at a rate of 30 μL/min. The association and dissociation times were 180 seconds and 400 seconds, respectively. After the dissociation step, stabilization was performed for 60 seconds, and then the regeneration step was performed for 30 seconds with a 10 mM glycine pH 1.5 solution at a rate of 30 μL/min.

human DcR3 = target: T4, human DcR3 (human, UniProt O95407 30-300); assay: SPR, human DcR3 immobilised on CM5, fusion protein as analyte, 1:1 binding model
T4 construct: also called LIGHT receptor DcR3
T4 sequence (looked up): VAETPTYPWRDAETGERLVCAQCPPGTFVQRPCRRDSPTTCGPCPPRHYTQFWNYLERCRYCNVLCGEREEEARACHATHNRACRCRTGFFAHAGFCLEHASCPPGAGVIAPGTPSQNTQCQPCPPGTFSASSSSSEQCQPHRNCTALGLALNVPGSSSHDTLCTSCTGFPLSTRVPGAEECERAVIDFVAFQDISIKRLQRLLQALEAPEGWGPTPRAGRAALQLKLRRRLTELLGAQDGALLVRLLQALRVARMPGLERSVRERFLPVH
Method: as §2, with “DcR3” for “HVEM”, “50 nM or 200” for “100”

[4] = target: T5, recombinant human lymphotoxin beta receptor (LTβR) (human, UniProt P36941 28-227, limits assumed); assay: SPR, human LTβR immobilised on CM5, fusion protein as analyte, 1:1 binding model
T5 construct: neither construct is described; also called human LTβR; recombinant human LTβR protein
T5 sequence (P36941 28-227 limits assumed): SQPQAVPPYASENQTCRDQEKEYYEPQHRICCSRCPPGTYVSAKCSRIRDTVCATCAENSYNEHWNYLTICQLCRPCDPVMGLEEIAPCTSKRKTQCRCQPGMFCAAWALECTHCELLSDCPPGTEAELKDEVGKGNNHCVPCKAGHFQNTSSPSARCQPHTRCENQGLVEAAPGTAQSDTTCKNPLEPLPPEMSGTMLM
Method: as §2, with “5” for “5 to 6”, “LTβR” for “HVEM”, “T3.01, T3.07, T3.09, T3.14, and T3.18 were each diluted to 100 nM in 1×HBS-EP+buffer solution and diluted by serial dilution.” left out

[5] = target: T2, recombinant human herpes virus entry …; assay: sandwich ELISA: plate coated with recombinant human HVEM 1 ug/mL, fusion protein from 1 nM in serial dilution, detected with biotinylated recombinant human FAP and streptavidin conjugate, OD 450 nm
Method: Considering that LIGHT of the fusion protein must bind to the herpes virus entry mediator (HVEM) for the action, it was confirmed that T3.01 binds to the recombinant human HVEM, as follows: [0370] (i) The recombinant human HVEM protein (R&D systems) was suspended at 1 μg/mL, dispensed in a 96-well immune plate, and treated for 24 hours. [0371] (ii) The wells were washed with a wash solution, and then blocking was performed for 1 hour with 1% BSA (bovine serum albumin, Sigma) solution. [0372] (iii) The wells were washed with a wash solution, and then T3.01, T3.14, T3.16, T3.17, T3.18 and T3.10, or T3.05, T3.06, T3.04, T3.14 and T3.10 were suspended at 1 nM and diluted by serial dilution. The wells were treated with the diluted T3.01, T3.14, T3.16, T3.17, T3.18 and T3.10, or T3.05, T3.06, T3.04, T3.14 and T3.10 for 2 hours. [0373] (iv) The wells were washed with a wash solution, and then treated with the human recombinant FAP-biotin diluted at 0.5 μg/mL for 2 hours. [0374] (v) The wells were washed with a wash solution, and then treated with streptavidin-RP for 20 minutes. [0375] (vi) The wells were washed with a wash solution, and then treated with a substrate solution for 20 minutes. [0376] (vii) The wells were treated with a stop solution, and the absorbance was measured at 450 nm.

human LTβR on A375 cells [6] = target: T1, human LTβR on A375 cells; assay: flow cytometry on A375 cells, serial dilutions, anti-human IgG detection, MFI against TMEkine [nM]
Method: as §1

T1 sequence (P36941 31-435): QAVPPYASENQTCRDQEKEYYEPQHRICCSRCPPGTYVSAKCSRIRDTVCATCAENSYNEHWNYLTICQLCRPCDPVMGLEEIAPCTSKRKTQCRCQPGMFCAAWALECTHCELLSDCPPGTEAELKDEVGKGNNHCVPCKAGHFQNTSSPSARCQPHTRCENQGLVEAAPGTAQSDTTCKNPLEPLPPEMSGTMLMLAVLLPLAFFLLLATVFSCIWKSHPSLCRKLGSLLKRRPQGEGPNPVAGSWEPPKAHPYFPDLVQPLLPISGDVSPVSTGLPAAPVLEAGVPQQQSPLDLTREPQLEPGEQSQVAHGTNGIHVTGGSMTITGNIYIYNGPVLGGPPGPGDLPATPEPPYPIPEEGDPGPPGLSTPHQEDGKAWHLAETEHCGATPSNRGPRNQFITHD

B1: T3.07 (anti-hu FAP-hu scLIGHT2/anti-hu FAP-hu LIGHT, hu IgG1 DANG (2 + 1)) (bispecific antibody)
heavy 1: QVQLVQSGAEVKKPGASVKVSCKTSRYTFTEYTIHWVRQAPGQRLEWIGGINPNNGIPNYNQKFKGRVTITVDTSASTAYMELSSLRSEDTAVYYCARRRIAYGYDEGHAMDYWGQGTLVTVSSASTKGPSVFPLAPSSKSTSGGTAALGCLVKDYFPEPVTVSWNSGALTSGVHTFPAVLQSSGLYSLSSVVTVPSSSLGTQTYICNVNHKPSNTKVDKKVEPKSCDKTHTCPPCPAPELLGGPSVFLFPPKPKDTLMISRTPEVTCVVVAVSHEDPEVKFNWYVDGVEVHNAKTKPREEQYGSTYRVVSVLTVLHQDWLNGKEYKCKVSNKALPAPIEKTISKAKGQPREPQVYTLPPSRDELTKNQVSLWCLVKGFYPSDIAVEWESNGQPENNYKTTPPVLDSDGSFFLYSKLTVDKSRWQQGNVFSCSVMHEALHNHYTQKSLSLSPGKGGGGSGGGGSEVNPAAHLTGANSSLTGSGGPLLWETQLGLAFLRGLSYHDGALVVTKAGYYYIYSKVQLGGVGCPLGLASTITHGLYKRTPRYPEELELLVSQQSPCGRATSSSRVWWDSSFLGGVVHLEAGEKVVVRVLDERLVRLRDGTRSYFGAFMVGGSGEVNPAAHLTGANSSLTGSGGPLLWETQLGLAFLRGLSYHDGALVVTKAGYYYIYSKVQLGGVGCPLGLASTITHGLYKRTPRYPEELELLVSQQSPCGRATSSSRVWWDSSFLGGVVHLEAGEKVVVRVLDERLVRLRDGTRSYFGAFMV
heavy 2: not shown
light: not shown
notes: Knob-into-hole; two anti-FAP arms, LIGHT dimer and LIGHT monomer at the C-termini of the two heavy chains; two copies of the light chain follow from the (2 + 1) format
For B1, the “IL-8 secretion of A375 cells, EC50 (FIG. 15b)” value (human LTβR on A375 cells [1]) was 47.7 pM, the “percent of cells bound” value (human LTβR on A375 cells [2]) was at least 96% and the Kd [3] was 3990 pM. For the same binder, the koff [3] was 0.00114 s⁻¹, the kon [3] was 285000 M⁻¹ s⁻¹ and the Kd (recombinant human FAP) was 303 pM. For the same binder, the koff (recombinant human FAP) was 0.000118 s⁻¹, the kon (recombinant human FAP) was 391000 M⁻¹ s⁻¹ and the Kd (human DcR3) was 598 pM. For the same binder, the koff (human DcR3) was 0.000195 s⁻¹, the kon (human DcR3) was 327000 M⁻¹ s⁻¹ and the Kd [4] was 935 pM. The koff [4] was 0.000382 s⁻¹ and the kon [4] was 409000 M⁻¹ s⁻¹.

B2: T3.04 (anti-hu FAP/hu scLIGHT3(GGGGS4), hu IgG1 DANG) (bispecific antibody)
heavy: QVQLVQSGAEVKKPGASVKVSCKTSRYTFTEYTIHWVRQAPGQRLEWIGGINPNNGIPNYNQKFKGRVTITVDTSASTAYMELSSLRSEDTAVYYCARRRIAYGYDEGHAMDYWGQGTLVTVSSASTKGPSVFPLAPSSKSTSGGTAALGCLVKDYFPEPVTVSWNSGALTSGVHTFPAVLQSSGLYSLSSVVTVPSSSLGTQTYICNVNHKPSNTKVDKKVEPKSCDKTHTCPPCPAPELLGGPSVFLFPPKPKDTLMISRTPEVTCVVVAVSHEDPEVKFNWYVDGVEVHNAKTKPREEQYGSTYRVVSVLTVLHQDWLNGKEYKCKVSNKALPAPIEKTISKAKGQPREPQVYTLPPSRDELTKNQVSLWCLVKGFYPSDIAVEWESNGQPENNYKTTPPVLDSDGSFFLYSKLTVDKSRWQQGNVFSCSVMHEALHNHYTQKSLSLSPGK
light: not shown
chain: not shown
notes: Knob-into-hole; LIGHT homotrimer with (GGGGS)4 linkers
B2 was tested, and the binding result [5] was “binds”, the “EC50 (read off the curve)” value (human LTβR on A375 cells [6]) was about 4000 pM and the “IL-8 secretion of A375 cells, EC50 (FIG. 15a)” value (human LTβR on A375 cells [1]) was 60.4 pM. The “percent of cells bound” value (human LTβR on A375 cells [2]) was at least 96%.
